Experimental data: patent US20160216264A1 (WASHINGTON UNIVERSITY, published 2016)

T1: peptide 1 (synthetic peptide corresponding to the epitope for mAb 01D10) (human)
T1 peptide: PSLVYRPDVDPEV

T2: mouse myo-inositol oxygenase (Miox) (mouse, UniProt Q9QXN5 1-285)
T2 construct: also called mouse Miox; mouse MIOX
T2 sequence (looked up): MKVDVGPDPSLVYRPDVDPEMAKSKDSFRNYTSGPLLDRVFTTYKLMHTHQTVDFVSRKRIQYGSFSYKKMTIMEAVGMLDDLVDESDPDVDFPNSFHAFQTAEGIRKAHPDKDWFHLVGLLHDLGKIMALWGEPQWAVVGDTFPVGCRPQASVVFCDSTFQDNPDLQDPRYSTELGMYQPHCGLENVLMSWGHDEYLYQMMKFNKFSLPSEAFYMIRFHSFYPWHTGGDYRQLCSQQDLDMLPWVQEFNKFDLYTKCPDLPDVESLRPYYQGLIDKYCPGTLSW

T3: rat myo-inositol oxygenase (Miox) (rat, UniProt Q9QXN4 1-285)
T3 construct: also called rat Miox; rat MIOX
T3 sequence (looked up): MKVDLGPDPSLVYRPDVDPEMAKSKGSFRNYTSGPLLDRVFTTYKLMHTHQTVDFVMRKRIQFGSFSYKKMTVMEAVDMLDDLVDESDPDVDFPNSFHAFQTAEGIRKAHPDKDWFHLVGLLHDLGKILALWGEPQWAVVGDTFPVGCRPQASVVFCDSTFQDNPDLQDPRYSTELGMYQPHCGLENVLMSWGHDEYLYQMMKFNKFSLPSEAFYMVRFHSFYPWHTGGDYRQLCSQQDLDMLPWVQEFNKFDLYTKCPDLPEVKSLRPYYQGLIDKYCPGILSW

T4: peptide 2 (synthetic peptide corresponding to the epitope for mAb 12H06) (human)
T4 peptide: RPYYQGLIDKYC

B1: mouse monoclonal anti-MIOX antibody 12H06 (antibody, IgG2b, V domains shown)
VH: QVQLQQPGAELVRPGTSVKLSCKASGYTFTSYWMHWVKQRPGQGLEWIGLIDPSDSYTNYNQKFKGKATLTVDTSSSTASMQLSSLTSEDSAVYYCVRTYYHSSYFFAYWGQGTLVTVSS
VL: DIVVTQSPASFAVSLGQRATISCRASKSVSTSGYSYINWYQQKPGQPPKLLIYLASNLESGVPARFSGSGSGTDFTLNIHPVEEEDAATYYCQHSRELPLTFGAGTRLELK
notes: the VH entry runs a few residues into CH1; also called mAb 12H06
B2: mouse monoclonal anti-MIOX antibody 01D10 (antibody, IgG2b, V domains shown)
VH: QVQLQQSGPELVKPGASVKISCKASGYSFTSYYIHWVKQRPGQGLEWIGWIYPGSGNSKYNEKFKGKATLTADTSSSTAYMQLSSLTSEDSAVYYCARDGSTYNWNFDVWGTGTTVTVSS
VL: DIQMTQSPASLSASVGETVTITCRTSGNIHNYLAWYQQKQGKSPQLLVYNAKTLADGVPSRFSGSGSGTQYSLKINSLQPEDFGSYYCQHFWSIPFTFGSGTKLEIKR
notes: they run a few residues into the constant regions; Biotinylated when used as capping antibody in the sandwich immunoassay; also called mAb 01D10

Experiments:
[1] = molecular target: T1, peptide 1 (synthetic peptide …); assay: peptide preincubation, then immunoblot
Experimental: (§1) FIG. 4A and FIG. 4B depict images of immunoblots showing confirmation of specific antibody epitopes by blocking mAb binding to endogenous MIOX. (FIG. 4A) The peptides corresponding to the epitopes for mAb 01D10 (peptide 1) and mAb 12H06 (peptide 2) were synthesized. mAb 01D10 was pre-incubated for one hour with buffer alone, 100 μg/ml peptide 1, or 100 μg/ml peptide 2. (FIG. 4B) Western inhibition of mAb 12H06 using either peptide 1 or peptide 2.
(§2) The linear epitopes of the anti-MIOX antibodies were determined by use of spot-peptide membrane arrays containing the full length amino acid sequence of MIOX. The two mouse monoclonal antibodies mapped to opposite ends of the MIOX sequence (FIG. 3B). The antibody designated 01D10 mapped to the N-terminal sequence of MIOX (FIG. 3C). The peptide spots were decoded to reveal the sequence P9-V21. The mouse monoclonal antibody designated 12H06 mapped to the C-terminal region of MIOX (FIG. 3C). The peptide spots were decoded to reveal the epitope sequence R268-C279. […] The peptide epitope recognized by the 12H06 mouse monoclonal antibody was 100% identical to the corresponding mouse and rat Miox peptide sequence. The peptide epitope recognized by the 01D10 mouse monoclonal antibody was 92% identical to the corresponding mouse and rat Miox peptide sequence. […]

[2] = molecular target: T2, mouse myo-inositol oxygenase (Miox); assay: Western blot of mouse kidney homogenate
Experimental: (§3) The cross-species immunoreactivity of the anti-MIOX monoclonal antibodies was investigated (FIG. 3D,E). Human, mouse, and rat kidney homogenates were separately probed with both monoclonal anti-MIOX antibodies.
(§4) Normal human kidney homogenate was purchased from G-Biosciences (NLH-04, G-Biosciences). Mouse and rat kidney homogenate was purchased from G-Biosciences, St. Louis, Mo. Western blotting was performed as previously described (Laterza O F, et al. Clin Chem 2006; 52:1713-1721). Blots were probed with 0.004 mg/mL of the rabbit polyclonal anti-MIOX antibody R9544 or 0.004 mg/mL of either the 01D10 or 12H06 mouse anti-MIOX monoclonal antibody. Where indicated, both monoclonal antibodies were used simultaneously, each at the above concentrations.

[3] = molecular target: T3, rat myo-inositol oxygenase (Miox); assay: Western blot of rat kidney homogenate
Experimental: as §3, §4

[4] = molecular target: T4, peptide 2 (synthetic peptide …); assay: peptide preincubation (one hour), then immunoblot
Experimental: as §1, §2

Row | Binder | binding result [1] | binding result [2] | binding result [3] | binding result [4]
1 | B1 | no binding (tested: 100 µg/ml) | binds | binds | –
2 | B2 | – | – | – | no binding (tested: 100 µg/ml)
